In test [1] the target is MUTYH W131* (c.309G > A) (human (endogenous in HEK293T)).
The target in test [2] is MUTYH D271G (c.728A > G) (human (endogenous in HEK293T)).
Test [3] has as its target MUTYH L296L (c.802C > T) (human (endogenous in HEK293T)). The experiment in a line: co-IP; MUTYH immunoprecipitated with MUTYH (C-6) antibody on Protein G Dynabeads from nuclear extract of wild-type or homozygous mutant HEK293T cells treated with 0.5 mM H2O2 for 1 h; 1 h at 4°C in PBST; blotted for APE1; APE1 signal quantified relative to MUTYH and normalised to unedited cells.

The target of test [4] is MUTYH W131* (c.309G > A) (human (endogenous in HEK293T)). The test is described as above.
Test [5] deals with MUTYH L111P (c.248T > C) (human (endogenous in HEK293T)). The test is described as above.
MUTYH L111P (c.248T > C) (human (endogenous in HEK293T)), sequence (Q9UIF7 whole entry, stated change not applied): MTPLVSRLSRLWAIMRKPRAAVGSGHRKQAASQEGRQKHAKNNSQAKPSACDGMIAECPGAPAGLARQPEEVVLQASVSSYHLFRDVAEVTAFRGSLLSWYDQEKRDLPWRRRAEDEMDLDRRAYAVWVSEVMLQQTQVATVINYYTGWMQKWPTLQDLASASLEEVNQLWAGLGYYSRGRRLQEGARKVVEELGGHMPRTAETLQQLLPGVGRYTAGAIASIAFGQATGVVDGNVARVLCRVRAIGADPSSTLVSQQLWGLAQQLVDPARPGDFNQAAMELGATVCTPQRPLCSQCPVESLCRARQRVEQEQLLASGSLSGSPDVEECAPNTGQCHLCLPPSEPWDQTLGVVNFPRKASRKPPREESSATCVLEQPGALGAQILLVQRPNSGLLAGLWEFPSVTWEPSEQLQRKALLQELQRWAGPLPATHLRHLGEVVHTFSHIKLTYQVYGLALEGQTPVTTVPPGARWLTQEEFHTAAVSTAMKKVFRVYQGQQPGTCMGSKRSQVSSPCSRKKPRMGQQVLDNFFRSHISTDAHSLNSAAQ
The target in test [6] is MUTYH D271G (c.728A > G) (human (endogenous in HEK293T)). Described as above.

MUTYH D271G (c.728A > G) (human (endogenous in HEK293T)), sequence (Q9UIF7 whole entry, stated change not applied): as above
MUTYH L296L (c.802C > T) (human (endogenous in HEK293T)), sequence (Q9UIF7 whole entry): as the sequence (Q9UIF7 whole entry, stated change not applied) above

For “APE1 (apurinic/apyrimidinic endodeoxyribonuclease 1) (from UniProt P27695 1-318) (enzyme)”, the 8-oxoG•[O] repair efficiency (average fold-change in MFI of EGFP+ cells compared to that of unedited HEK293T cells), homozygous W131* clones (fold of unedited HEK293T cells) in test [1] turned out to be 0.34. In test [2], the 8-oxoG•[O] repair efficiency (average fold-change in MFI of EGFP+ cells compared to that of unedited HEK293T cells), homozygous D271G clones (fold of unedited HEK293T cells) was found to be 0.56. In addition, the APE1 signal relative to MUTYH in the MUTYH immunoprecipitate, normalised to wild type (relative to wild-type levels) in test [3] amounted to 0.8; in test [4], 0.21; in test [5] it was 0.82; in test [6], 0.29.

Values taken from article PMC11952967.
